Results taken from the supplement of paper PMC10724198.
± gives the standard deviation of the averaged measurements.

Test system: Saccharomyces cerevisiae
Experiment: protein stability index of tFT-peptide fusion (C-terminal peptide) (PSI (0-1 scale)); higher = more stable (slower turnover)
Conditions: temperature: 30 C
Description: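 MPS profiling in S. cerevisiae of the yeast C-terminome library: the last 12 aa of each annotated ORF are fused to the C-terminus of a sfGFP-mCherry timer, after a GGGS linker. Cells are FACS-sorted into 8 mCherry/sfGFP bins and deep-sequenced. PSI runs from 0 (unstable) to 1 (stable); wild type and das1Δ backgrounds, two technical replicates each.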

[1] = genetic background: das1 deletion

Sequence | protein stability index [1] | protein stability index (genetic background: wild type)
IFKSLIAKKVQS [BPL1 C-terminal 12 aa] | 0.69 ± 0.001 | 0.433 ± 0.033
IFLMKKAYDLQI [EFM1 C-terminal 12 aa] | 0.675 ± 0.011 | 0.657 ± 0.02
IGIGTHDLHFGS [YHR052W-A C-terminal 12 aa] | 0.728 ± 0.033 | 0.7123 ± 0.0016
IGKQKCFIIEMR [MSY1 C-terminal 12 aa] | 0.6688 ± 0.00094 | 0.679 ± 0.0098
IHFGETSNYSFD [SMC5 C-terminal 12 aa] | 0.722 ± 0.02 | 0.698 ± 0.017
IHNDIPSHRKLK [FIR1 C-terminal 12 aa] | 0.699 ± 0.022 | 0.6589 ± 0.0014
IHRVIKNATPVA [PEX28 C-terminal 12 aa] | 0.624 ± 0.027 | 0.649 ± 0.026
IHSGYTNISYTI [MCM16 C-terminal 12 aa] | 0.709 ± 0.0077 | 0.7012 ± 0.0067
IHYKMNENSTNQ [SYO1 C-terminal 12 aa] | 0.689 ± 0.0075 | 0.68 ± 0.04
IIEEKVRNYLNK [RIB5 C-terminal 12 aa] | 0.696 ± 0.061 | 0.685 ± 0.01
IKDAIKNGTGLL [MET31 C-terminal 12 aa] | 0.677 ± 0.0075 | 0.678 ± 0.014
IKKEVSRRLNGR [CUR1 C-terminal 12 aa] | 0.647 ± 0.016 | 0.692 ± 0.03
IKNSSLAVLHST [YKL162C C-terminal 12 aa] | 0.705 ± 0.021 | 0.205 ± 0.019
IKTIVEAMDVLS [PCC1 C-terminal 12 aa] | 0.67028 ± 4.3e-05 | 0.656 ± 0.025
ILELPHVVSDLF [SDT1 C-terminal 12 aa] | 0.713 ± 0.0089 | 0.7147 ± 0.0022
IMALIAESGDDF [ERV14 C-terminal 12 aa] | 0.673 ± 0.021 | 0.7007 ± 0.0027
INDNNENASNSV [GLD1 C-terminal 12 aa] | 0.6943 ± 0.0069 | 0.676 ± 0.024
INRRQTPLQSNA [CDC39 C-terminal 12 aa] | 0.7 ± 0.011 | 0.666 ± 0.011
IQINKGDNIFKN [YTM1 C-terminal 12 aa] | 0.688 ± 0.026 | 0.732 ± 0.025
IRIVITINKVTL [IRC9 C-terminal 12 aa] | 0.348 ± 0.0076 | 0.36577 ± 0.00023
IRKPDDKFSSFI [YOR072W C-terminal 12 aa] | 0.702 ± 0.0082 | 0.706 ± 0.032

Sequence | protein stability index [1] | protein stability index (genetic background: wild type)
IRMYLGSSLDIE [SRX1 C-terminal 12 aa] | 0.69 ± 0.013 | 0.6815 ± 0.0061
ISICILDLASHL [YBL071C C-terminal 12 aa] | 0.6703 ± 0.0038 | 0.669 ± 0.018
ISLWYKHNRVKG [YPR077C C-terminal 12 aa] | 0.677 ± 0.017 | 0.5619 ± 0.0045
ISSGPPPRSPNK [IGO2 C-terminal 12 aa] | 0.68 ± 0.01 | 0.6422 ± 0.0036
ISTAPEQMMFLP [MSG5 C-terminal 12 aa] | 0.7169 ± 0.0058 | 0.7155 ± 0.0068
ISVSKKTLKSNW [HOP1 C-terminal 12 aa] | 0.698 ± 0.011 | 0.686 ± 0.022
IVKIIRFNHASV [YHL048C-A C-terminal 12 aa] | 0.685 ± 0.016 | 0.658 ± 0.034
IVNDVWLPFQKW [DSD1 C-terminal 12 aa] | 0.729 ± 0.03 | 0.701 ± 0.02
IWKKVPETKRSG [VPS73 C-terminal 12 aa] | 0.707 ± 0.019 | 0.669 ± 0.022
IYSVTKKRNTRI [RSF2 C-terminal 12 aa] | 0.725 ± 0.026 | 0.693 ± 0.092
IYYKSQNWRREC [YBR219C C-terminal 12 aa] | 0.707 ± 0.045 | 0.169 ± 0.0069
KAEASEAAHDEL [CPR5 C-terminal 12 aa] | 0.695 ± 0.0055 | 0.676 ± 0.038
KAGREELERVNV [QCR8 C-terminal 12 aa] | 0.688 ± 0.026 | 0.685 ± 0.015
KAINFDEDVLNL [VID30 C-terminal 12 aa] | 0.66 ± 0.017 | 0.748 ± 0.02
KALQKAMGSVQF [YEL1 C-terminal 12 aa] | 0.702 ± 0.018 | 0.687 ± 0.03
KARIVVAKSGEL [CPR1 C-terminal 12 aa] | 0.686 ± 0.018 | 0.645 ± 0.015
KCLDLLKTELGE [POC4 C-terminal 12 aa] | 0.699 ± 0.018 | 0.6935 ± 0.0043
KDSAQSLDDLLM [SFM1 C-terminal 12 aa] | 0.7007 ± 0.0043 | 0.6969 ± 0.0046
KDSKEYFKNANN [TSA2 C-terminal 12 aa] | 0.714 ± 0.022 | 0.716 ± 0.02
KEFKQFEFHNRR [RRP36 C-terminal 12 aa] | 0.729 ± 0.011 | 0.681 ± 0.011
KERSHHFVRNMN [YKL102C C-terminal 12 aa] | 0.707 ± 0.0071 | 0.637 ± 0.048

Sequence | protein stability index [1] | protein stability index (genetic background: wild type)
KERTHLFQLIRK [EFM6 C-terminal 12 aa] | 0.699 ± 0.0076 | 0.6923 ± 0.0018
KEVPLDFDPDRN [ANP1 C-terminal 12 aa] | 0.683 ± 0.037 | 0.688 ± 0.022
KEWKEKEKTGKQ [MPC1 C-terminal 12 aa] | 0.728 ± 0.012 | 0.702 ± 0.022
KFDKPLYERLET [YNR014W C-terminal 12 aa] | 0.6855 ± 0.0028 | 0.651 ± 0.044
KFQDVLDNFLQG [ETT1 C-terminal 12 aa] | 0.713 ± 0.019 | 0.685 ± 0.01
KFSSTSRYMQYN [RPT1 C-terminal 12 aa] | 0.705 ± 0.016 | 0.642 ± 0.017
KGATIKEIVLND [ATH1 C-terminal 12 aa] | 0.69826 ± 0.00054 | 0.672 ± 0.012
KGGRLSSKPIIM [SPT3 C-terminal 12 aa] | 0.683 ± 0.019 | 0.686 ± 0.034
KGVFWDPACVIA [MFA1 C-terminal 12 aa] | 0.731 ± 0.0082 | 0.713 ± 0.031
KHCPYVFIPYVF [ERG4 C-terminal 12 aa] | 0.5262 ± 0.00096 | 0.273 ± 0.0033
KHGLNDWIVGQK [YPL225W C-terminal 12 aa] | 0.712 ± 0.021 | 0.745 ± 0.035
KHKNILFFNHNT [YJR162C C-terminal 12 aa] | 0.725 ± 0.015 | 0.199 ± 0.0036
KHKNILSFNDNT [YER188C-A C-terminal 12 aa] | 0.731 ± 0.015 | 0.747 ± 0.068
KHKQYFWKRPTK [PLM2 C-terminal 12 aa] | 0.714 ± 0.015 | 0.692 ± 0.019
KHVGKGCGYSYH [STP4 C-terminal 12 aa] | 0.696 ± 0.024 | 0.6985 ± 0.0052
KILDEINLDRIK [HEM3 C-terminal 12 aa] | 0.689 ± 0.0094 | 0.681 ± 0.052
KILTQHLQDLQS [RKM2 C-terminal 12 aa] | 0.6934 ± 0.0063 | 0.714 ± 0.077
KIQWDIDPQLDG [SSY5 C-terminal 12 aa] | 0.743 ± 0.033 | 0.723 ± 0.082
KIVSGLVRTNSS [YIL060W C-terminal 12 aa] | 0.703 ± 0.019 | 0.717 ± 0.024
KKARKMPTWVKR [MRPS9 C-terminal 12 aa] | 0.693 ± 0.032 | 0.65752 ± 7.3e-05
KKKLVKKTKSKK [RIO1 C-terminal 12 aa] | 0.739 ± 0.01 | 0.705 ± 0.081

Sequence | protein stability index [1] | protein stability index (genetic background: wild type)
KKKQNDGKSLRS [DBP8 C-terminal 12 aa] | 0.687 ± 0.013 | 0.732 ± 0.0081
KLAKPAPTSKLD [TDA4 C-terminal 12 aa] | 0.6901 ± 0.0021 | 0.692 ± 0.025
KLIHIPIRYVIV [SSS1 C-terminal 12 aa] | 0.424 ± 0.03 | 0.3647 ± 0.00092
KLQPQVYKPWSL [RSC8 C-terminal 12 aa] | 0.6842 ± 0.0019 | 0.703 ± 0.0092
KNHDFKDCADIF [SWH1 C-terminal 12 aa] | 0.721 ± 0.017 | 0.688 ± 0.043
KNIPEKFKNGIF [SSP120 C-terminal 12 aa] | 0.729 ± 0.036 | 0.647 ± 0.0098
KNLQNELEKNNA [RTN1 C-terminal 12 aa] | 0.6887 ± 0.0022 | 0.6647 ± 0.0021
KNLTRTSVSFIG [TRS85 C-terminal 12 aa] | 0.7307 ± 0.0033 | 0.702 ± 0.037
KNSNLSPTQIEL [SSK1 C-terminal 12 aa] | 0.7083 ± 0.0012 | 0.693 ± 0.024
KPFYYKIYRFWC [SAM3 C-terminal 12 aa] | 0.735 ± 0.024 | 0.3886 ± 0.0019
KPGGSKKRKTKA [RFC1 C-terminal 12 aa] | 0.729 ± 0.011 | 0.747 ± 0.15
KPGLTVYSIELL [SMP3 C-terminal 12 aa] | 0.6898 ± 0.0048 | 0.692 ± 0.011
KPMAYSNGGFGL [PPT1 C-terminal 12 aa] | 0.674 ± 0.015 | 0.668 ± 0.015
KQAQEGTKNLKI [PAC10 C-terminal 12 aa] | 0.714 ± 0.055 | 0.666 ± 0.029
KQRFLLCWSTKL [YHR131W-A C-terminal 12 aa] | 0.693 ± 0.034 | 0.55 ± 0.04
KQYSSPEICFRV [YBR134W C-terminal 12 aa] | 0.692 ± 0.029 | 0.663 ± 0.014
KRAENNAQKKTN [ERG25 C-terminal 12 aa] | 0.689 ± 0.019 | 0.495 ± 0.0083
KRRPYVRAHAKW [YGR051C C-terminal 12 aa] | 0.7089 ± 0.0043 | 0.698 ± 0.05
KRRSDSKESRKL [YPR145C-A C-terminal 12 aa] | 0.713 ± 0.037 | 0.673 ± 0.03
